In patent US20240376151A1, “STAPLED PEPTIDES AND METHODS THEREOF” (FOG PHARMACEUTICALS, INC., priority 2022, published 2024):

Target: T1, RNF31 PUB domain (Homo sapiens, UniProt Q96EP0)
T1 construct: MBP-TEV (N, cleaved yes); made in house; host or cells: E. coli BL21 (DE3) pLysS
T1 sequence (Q96EP0 1-179): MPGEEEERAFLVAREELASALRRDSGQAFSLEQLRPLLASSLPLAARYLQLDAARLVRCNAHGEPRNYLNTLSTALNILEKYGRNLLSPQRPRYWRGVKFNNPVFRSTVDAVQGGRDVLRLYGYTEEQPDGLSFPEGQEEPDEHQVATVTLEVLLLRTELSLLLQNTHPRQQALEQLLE
Assay: Phage Library Screening with NGS, RNF31 PUB domain
Format: binding
Conditions: for Phage library screen NGS readout, Target Concentration 10 / Phage library screen NGS readout, Target Concentration 30 / Phage library screen NGS readout, Target Concentration 100 / Phage library screen NGS readout, Target Concentration 300 / Phage library screen NGS readout, Target Concentration 1000: RNF31 PUB domain clusters C41-C45; for Phage library screen NGS readout, BLANK: clusters C41-C45

[1] = target concentration 1000, first column
[2] = target concentration 1000, second column

Sequence	Phage library screen NGS readout, Target Concentration 10	Phage library screen NGS readout, Target Concentration 30	Phage library screen NGS readout, Target Concentration 100	Phage library screen NGS readout, Target Concentration 300	Phage library screen NGS readout, Target Concentration 1000 [1]	Phage library screen NGS readout, Target Concentration 1000 [2]	Phage library screen NGS readout, BLANK (column 1 of 5)	Phage library screen NGS readout, BLANK (column 2 of 5)	Phage library screen NGS readout, BLANK (column 3 of 5)	Phage library screen NGS readout, BLANK (column 4 of 5)	Phage library screen NGS readout, BLANK (column 5 of 5)
DPAWLDCIYAAYDCVTD	1	1	1	3	6	4	1	1	1	0	2
DPAWMDCLYAAYDCQHM	2	2	0	9	29	24	1	1	1	0	0
DPAWMQCMYAAWDCNIE	0	0	0	4	6	5	0	0	0	0	0
DPAWNDCLYAAETCISW	1	1	1	3	11	1	2	1	1	0	0
DPAWQECVIAALVCDTY	0	0	0	3	13	8	0	0	1	4	0
DPAWTDCDWAALYCDES	0	0	0	0	8	4	0	0	0	0	0
DPAWTDCDWAALYCEFQ	1	0	0	0	6	6	0	0	0	1	0
DPAWTQCDWAALYCEDQ	0	1	0	1	7	10	0	0	0	0	0
DPAWWDCMYAASHCDTV	0	0	0	3	12	2	2	0	0	0	0
DPAWWNCLYAADECWSW	0	0	0	3	13	6	0	0	1	0	0
DPAWWNCLYAANTCVED	0	1	0	5	7	5	1	2	1	1	1
DPAWWNCLYAAYECNHA	1	0	0	3	9	5	0	0	0	2	0
DPAWWSCMYAAWTCDDT	1	10	0	7	14	15	0	2	2	1	1
DPAYDLCLNAAVACTYV	0	2	2	19	62	71	1	2	1	0	0
